One block for each molecule: values may come before it.
Columns and labels:
[1] = target: endogenous NMDAR of mouse primary neurons and microglia (mouse (endogenous in primary neurons and microglia)) (UniProt P35438); assay: proximity ligation; in situ PLA on primary microglia from non-transgenic control mice; percent of cells with red dots and dots per cell counted (Figure 6B,C)
[2] = target: endogenous NMDAR of mouse primary neurons and microglia (mouse (endogenous in primary neurons and microglia)) (UniProt P35438); assay: proximity ligation; in situ PLA on primary neurons from non-transgenic control embryos; percent of cells with red dots and dots per cell counted (Figure 5C,D)
[3] = target: endogenous NMDAR of mouse primary neurons and microglia (mouse (endogenous in primary neurons and microglia)) (UniProt P35438); assay: proximity ligation; in situ PLA on primary microglia from APP_(Sw,Ind) transgenic mice; percent of cells with red dots and dots per cell counted (Figure 6B,C)
[4] = target: GluN1Rluc expressed without GluN2 (human) (UniProt Q05586); assay: FRET or BRET; BRET^1 saturation in HEK-293T cells: constant GluN1Rluc cDNA (0.3 ug) without GluN2, increasing cDNA of the YFP-fused calcium sensor
[5] = target: endogenous NMDAR of mouse primary neurons and microglia (mouse (endogenous in primary neurons and microglia)) (UniProt P35438); assay: proximity ligation; in situ PLA on primary neurons from APP_(Sw,Ind) transgenic embryos; percent of cells with red dots and dots per cell counted (Figure 5C,D)
[6] = target: NMDAR reconstituted from GluN1Rluc and GluN2B (human) (UniProt Q05586); assay: FRET or BRET; BRET^2 saturation in HEK-293T cells: constant GluN1-RLuc and GluN2B cDNA, increasing NCS1-GFP^2 cDNA; 5 uM Deep Blue C

PLA red dots per cell containing dots (red dots/cell containing dots) [1]: 3
percent of microglial cells with PLA complexes [1]: 35%
percent of neurons with PLA complexes [2]: 77%
PLA red dots per cell containing dots (red dots/cell containing dots) [3]: 6
percent of microglial cells with PLA complexes [3]: 65%
Molecule: endogenous calmodulin of mouse primary neurons and microglia (from UniProt P0DP26 1-149) (natural protein)

BRET50 [4]: 30
Molecule: NCS1YFP fusion protein (from UniProt P62166 1-190) (natural protein)

PLA clusters per cell (clusters per cell) [2]: 2
percent of neurons with PLA complexes [2]: 21%
PLA clusters per cell (clusters per cell) [5]: 5.5
percent of neurons with PLA complexes [5]: 68%
Molecule: endogenous NCS1 of mouse primary neurons and microglia (from UniProt Q8BNY6 1-190) (natural protein)

BRET50 [4]: 3.5
Molecule: CaM-YFP fusion protein (from UniProt P0DP23 1-149) (natural protein)

BRET50 [6]: 35
Molecule: NCS1GFP^2 fusion protein (from UniProt P62166 1-190) (natural protein)

percent of neurons with PLA complexes [2]: 14%
B1: endogenous calneuron-1 of mouse primary neurons (natural protein)
chain: MRLPEQPGDGKPENETKGDQETPERGEEPRRSPAPDFPTWEKMPFHHVTAGLLYKGNYLNRSLSAGSDSEQLANISVEELDEIREAFRVLDRDGNGFISKQELGMAMRSLGYMPSEVELAIIMQRLDMDGDGQVDFDEFMTILGPKLVSSEGRDGFLGNTIDSIFWQFDMQRVTLEELKHILYHAFRDHLTMKDIENIIINEEESLNETSGNCQTEFEGVHSQKQNRQTCVRKSLICAFAMAFIISVMLIAANQILRSGME
